Assay in all cases: purified protein
Substrate in data set [1]: C[C@H](O)CC(=O)SCCNC(=O)CCNC(=O)[C@H](O)C(C)(C)COP(=O)(O)OP(=O)(O)OC[C@H]1O[C@@H](n2cnc3c(N)ncnc32)[C@H](O)[C@@H]1OP(=O)(O)O
Particulars: oxidative direction with NAD+.

Substrate in data set [2]: CC(=O)CC(=O)SCCNC(=O)CCNC(=O)[C@H](O)C(C)(C)COP(=O)(O)OP(=O)(O)OC[C@H]1O[C@@H](n2cnc3c(N)ncnc32)[C@H](O)[C@@H]1OP(=O)(O)O
Particulars: pH 7 TRIS-HCl, 35°C.

Substrate in data set [3]: NC(=O)c1ccc[n+]([C@@H]2O[C@H](COP(=O)(O)OP(=O)(O)OC[C@H]3O[C@@H](n4cnc5c(N)ncnc54)[C@H](O)[C@@H]3O)[C@@H](O)[C@H]2O)c1
Particulars: 0.4 mM crotonyl-CoA, pH 7 TRIS-HCl, 75°C, varied: cofactor.

Substrate in data set [4]: C/C=C/C(=O)SCCNC(=O)CCNC(=O)[C@H](O)C(C)(C)COP(=O)(O)OP(=O)(O)OC[C@H]1O[C@@H](n2cnc3c(N)ncnc32)[C@H](O)[C@@H]1OP(=O)(O)O
The conditions noted are these: 0.2 mM NAD+, pH 7 TRIS-HCl, 75°C.

Substrate in data set [5]: NC(=O)C1=CN([C@@H]2O[C@H](COP(=O)(O)OP(=O)(O)OC[C@H]3O[C@@H](n4cnc5c(N)ncnc54)[C@H](O)[C@@H]3O)[C@@H](O)[C@H]2O)C=CC1
Particulars: 0.6 mM AcAcCoA, pH 7 TRIS-HCl, 35°C, varied: cofactor.

Substrate in data set [6]: NC(=O)C1=CN([C@@H]2O[C@H](COP(=O)(O)OP(=O)(O)OC[C@H]3O[C@@H](n4cnc5c(N)ncnc54)[C@H](OP(=O)(O)O)[C@@H]3O)[C@@H](O)[C@H]2O)C=CC1
Particulars: 0.3 mM AcAcCoA, pH 7 TRIS-HCl, 35°C, varied: cofactor.

Substrate in data set [7]: C[C@@H](O)CC(=O)SCCNC(=O)CCNC(=O)[C@H](O)C(C)(C)COP(=O)(O)OP(=O)(O)OC[C@H]1O[C@@H](n2cnc3c(N)ncnc32)[C@H](O)[C@@H]1OP(=O)(O)O
Particulars: oxidative direction, 2 mM NADP+, pH 7 TRIS-HCl, 70°C.

B1: HCDH/ECH (Saci_1109) (Sulfolobus acidocaldarius DSM 639) (protein)
chain: MKVEDIKKILVIGAGTMGHGIAELAAIAGYQVYLSDVSQDILNSAMDKVKWSLTKLKERGTIKEDVETVLQRIRPVVGLDKTVSDADFSIEAITEKIDVKRQTFAKLDELLPPHAILATNTSSLPVSKIAEATKRPDKVVGMHYFNPPALMPLVEVMKGDKTSDETAKVTYELAKKLGKQPIMINKDIPGYVVNRILGGINIASCIVVEKKLADIKEVDAVARYKLGFPMGVFELLDYTGIDVAYYISKSREELGVKDDIPICSLIVEKFKNNELGVKSGKGFYTYPGPGKYVKPELPKELAEKLNPALIIAPAVNEAARLVRENIASKEDVDLGTVLGLGFQKGILKLADEVGIDNIVNSLSELKKLTGISSFDPDPLLTEMVSQGKVGMKSGSGFFEYGKIQQKTLKTLILRVEPPLAWIVLNRPERLNALSQELMGELDKVLDELEFNNDVRVVIITGNGRAFSAGADVTSFTTLRPIDVVRYRYMKNVIYKIQLYTKPVIAAINGFALGGGLELAMACDIRIASNLAQLGQPEINIGIIPGAGGTQRLPRLIGKGRAKLLIYTGDMIPAEEAYKMGLVDQVVPANKFEEEVRRVALKIAEKSPLSLLAAKLAVELGYEANIWTGQELESALFGLLFTTEDVKEGVRAFLERRKPQFKGE
As a reminder, the Km is the concentration of substrate that gives half-maximal velocity. A word on the kcat: it is the maximal rate divided by the concentration of active sites. As to B1, the Michaelis-Menten constant (Km) in “purified protein [1]” came to 43 ± 2 µM; in the data set “purified protein [2]” (0.2 mM NADH), 76 ± 8 µM; in the data set “purified protein [3]” it was 36 ± 9 µM; in the data set “purified protein [4]”, 24 ± 4 µM; in the data set “purified protein [5]” it was 28 ± 7 µM. Besides, the values for the catalytic constant (kcat) in the data set “purified protein [1]”, in the data set “purified protein [4]” and in the data set “purified protein [5]” were 58.672 s⁻¹, 20.56 s⁻¹ and 8.441 s⁻¹, respectively.

B2: ACR (Saci_1104) (Sulfolobus acidocaldarius DSM 639) (protein)
chain: MYSLKDKVVVVTGSGRGIGRAIALRLAQEGSKIVVNAKKRAEEVNETVEMVKKIGGDAVGVLADVGTKEGCETLLKSTLDKFGVVDILVNNAGLGLFSLFMNADDKLIEKHISVDFKSVVYCSQAFAREMREGGEIVNIASIAGVLPAYGLSMYGAMKGAVISLTKYMALELAPKIRVNAIAPGWVKTKLGESMYKLLNMSEKEFVEKTTLMGKMLEPEDIAEFVTAILKIEGLTGQVFVVDAGESIKRGIA
For the protein B2, the Michaelis-Menten constant (Km) was 24 ± 3 µM in the data set “purified protein [6]”, 77 ± 9 µM in the data set “purified protein [2]” (0.2 mM NADPH) and 160 ± 12 µM in the data set “purified protein [7]”. Further, the values for the turnover number (kcat) in the data set “purified protein [2]” (0.2 mM NADPH) and in “purified protein [7]” were 0.586 s⁻¹ and 0.435 s⁻¹, respectively.

The record behind these values is publication doi:10.1101/2024.07.05.601840v1.
